Test [1] deals with HLA-B*35:01_… (HLA-PEPTIDE target G5), recombinant soluble complex (human, UniProt P01889 25-297 at identity 0.94); P61769 21-119, enzymatically biotinylated (BirA) for screening and functional assays). The test is described as follows: scFv PPE ELISA. (In general: ELISA stands for enzyme-linked immunosorbent assay.)
Test [2] addresses HLA-A*01:01_… (HLA-PEPTIDE target G10), recombinant soluble complex (human, UniProt P04439-2 25-297; P61769 21-119, enzymatically biotinylated (BirA) for screening and functional assays). The test can be described thus: scFv PPE ELISA.

Changes are numbered by the printed parent chain.

B1: scFv G5-P1B12 (scFv, V domains shown)
VH: EVQLLESGGGLVQPGGSLRLSCAASGFTFSNSDMNWVRQAPGKGLEWVASISSSGGYINYADSVKGRFTISRDNSKNTLYLQMNSLRAEDTAVYYCAKVNWNDGPYFDYWGQGTLVTVSS
VL: DIQMTQSPSSLSASVGDRVTITCRASQSISSWLAWYQQKPGKAPKLLIYAASSLQSGVPSRFSGSGSGTDFTLTISSLQPEDFATYYCQQANSFPLTFGGGTKVEIK
For the molecule B1, the “fold binding to target pHLA over minipool of negative control pHLAs” value (“fold binding to target pHLA” for short) in test [1] is at least 3 fold.

B2: scFv R3G10-P1H08 (scFv, V domains shown)
VH: QVQLVQSGAEVKKPGASVKVSCKASGVTFSTSAISWVRQAPGQGLEWMGWISPYNGNTDYAQMLQGRVTMTRDTSTSTVYMELSSLRSEDTAVYYCARDAHQYYDFWSGYYSGTYYYGMDVWGQGTTVTVSS
VL: B1 VL with S28G, S31N, W32Y, A50S, S53N, N92Y, L96W, G100Q
On to B2, for which the “fold binding to target pHLA” value in test [2] is at least 3 fold.

B3: scFv G5-P1C12 (scFv, V domains shown)
VH: QVQLVQSGAEVKKPGSSVKVSCKASGGTFSNFGVSWLRQAPGQGLEWMGGIIPILGTANYAQKFQGRVTITADESTSTAYMELSSLRSEDTAVYYCATPTNSGYYGPYYYYGMDVWGQGTTVTVSS
VL: B1 VL with S53T, A91S, N92Y, F94I
Consider B3, for which the “fold binding to target pHLA” value in test [1] was at least 3 fold.

B4: scFv R3G10-P3E04 (scFv, V domains shown)
VH: QVQLVQSGAEVKKPGASVKVSCKASGNTFIGYYVHWVRQAPGQGLEWVGIINPNGGSISYAQKFQGRVTMTRDTSTSTVYMELSSLRSEDTAVYYCARGSGDPNYYYYYGLDVWGQGTTVTVSS
VL: B1 VL with R24Q, S28D, S31N, W32Y, A34N, S53N, F94L, L96Y, G100Q
For B4, the “fold binding to target pHLA” value in test [2] is at least 3 fold.

B5: scFv G5-P4E04 (scFv, V domains shown)
VH: QVQLVQSGAEVKKPGASVKVSCKASGGTFSSYGISWVRQAPGQGLEWMGWINPNSGVTKYAQKFQGRVTMTRDTSTSTVYMELSSLRSEDTAVYYCARGDYYFDYWGQGTLVTVSS
VL: B1 VL with S31R, W32F, A34N, A50G, S53R, L54P, A91S, N92Y, F94T, G100Q
As to B5, the “fold binding to target pHLA” value in test [1] is at least 3 fold.

B6: scFv G5-P3G08 (scFv, V domains shown)
VH: QVQLVQSGAEVKKPGASVKVSCKASGYIFRNYPMHWVRQAPGQGLEWMGWINPDSGGTKYAQKFQGRVTMTRDTSTSTVYMELSSLRSEDTAVYYCARDNGVGVDYWGQGTLVTVSS
VL: B1 VL with S28G, S31N, W32Y, A91S, N92Y, S93I, F94T, L96Y, G100Q, V104L
With B6, the “fold binding to target pHLA” value in test [1] was at least 3 fold.

B7: scFv R3G10-P2G11 (scFv, V domains shown)
VH: QVQLVQSGAEVKKPGASVKVSCKASGGTFSTHDINWVRQAPGQGLEWMGVINPSGGSAIYAQKFQGRVTMTRDTSTSTVYMELSSLRSEDTAVYYCARDRGYSYGYFDYWGQGTLVTVSS
VL: B1 VL with S28D, S31R, W32Y, A50D, S53N, Q55E, S56T, L96R, G100Q
As to B7, the “fold binding to target pHLA” value in test [2] was at least 3 fold.

B8: scFv R3G10-P4D10 (scFv, V domains shown)
VH: QVQLVQSGAEVKKPGASVKVSCKASGYTFTGYYLHWVRQAPGQGLEWMGMIGPSDGSTSYAQKFQGRVTMTRDTSTSTVYMELSSLRSEDTAVYYCARDGDAFDIWGQGTMVTVSS
VL: B1 VL with S28G, A50D, S53N, Q55E, S56T, A91S, N92Y, F94T
B8: the “fold binding to target pHLA” value in test [2] was at least 3 fold.

B9: scFv G5R4-P4B01 (scFv, V domains shown)
VH: QVQLVQSGAEVKKPGSSVKVSCKASGGTFSSYAISWVRQAPGQGLEWMGGIIPIVGTANYAQKFQGRVTITADESTSTAYMELSSLRSEDTAVYYCARGGSYYYYGMDVWGQGTTVTVSS
VL: not shown
Regarding B9, the “fold binding to target pHLA” value in test [1] was at least 3 fold.

B10: scFv R3G10-P4D04 (scFv, V domains shown)
VH: QVQLVQSGAEVKKPGASVKVSCKASGYTFTGYYVHWVRQAPGQGLEWMGIIAPSDGSTNYAQKFQGRVTMTRDTSTSTVYMELSSLRSEDTAVYYCARDPGGYMDVWGKGTTVTVSS
VL: DIQMTQSPSSLSASVGDRVTITCRASQSISSYLAWYQQKPGKAPKLLIYDASKLETGVPSRFSGSGSGTDFTLTISSLQPEDFATYYCQQSYGVPTFGQGTKLEIK
For the molecule B10, the “fold binding to target pHLA” value in test [2] was at least 3 fold.

B11: scFv R3G10-P4A02 (scFv, V domains shown)
VH: QVQLVQSGAEVKKPGASVKVSCKASGYTLSYYYMHWVRQAPGQGLEWMGMIGPSDGSTSYAQRFQGRVTMTRDTSTGTVYMELSSLRSEDTAVYYCARDTGDHFDYWGQGTLVTVSS
VL: not shown
Consider B11, for which the “fold binding to target pHLA” value in test [2] was at least 3 fold.

B12: scFv R3G10-P4G06 (scFv, V domains shown)
VH: B11 VH
VL: not shown
notes: VH and VL as printed equal those of R3G10-P4A02
For B12, the “fold binding to target pHLA” value in test [2] was at least 3 fold.

B13: scFv G5-P4B02 (scFv, V domains shown)
VH: QVQLVQSGAEVKKPGASVKVSCKASGYTFTGYYMHWVRQAPGQGLEWMGWMNPNIGNTGYAQKFQGRVTMTRDTSTSTVYMELSSLRSEDTAVYYCARGIADSGSYYGNGRDYYYGMDVWGQGTTVTVSS
VL: DIVMTQSPDSLAVSLGERATINCKTSQSVLYRPNNENYLAWYQQKPGQPPKLLIYQASIREPGVPDRFSGSGSGTDFTLTISSLQAEDVAVYYCQQYYTTPYTFGQGTKLEIK
For the molecule B13, the “fold binding to target pHLA” value in test [1] is at least 3 fold.

B14: scFv R3G10-P4E07 (scFv, V domains shown)
VH: QVQLVQSGAEVKKPGSSVKVSCKASGYTFTGYYMHWVRQAPGQGLEWMGRISPSDGSTTYAPKFQGRVTITADESTSTAYMELSSLRSEDTAVYYCARDMGDAFDIWGQGTTVTVSS
VL: not shown
For B14, the “fold binding to target pHLA” value in test [2] was at least 3 fold.

B15: scFv G5R4-P2B10 (scFv, V domains shown)
VH: QVQLVQSGAEVKKPGASVKVSCKASGGTFSSYAISWVRQAPGQGLEWMGWMNPDSGSTGYAQRFQGRVTMTRDTSTSTVYMELSSLRSEDTAVYYCARGHSSGWYYYYGMDVWGQGTTVTVSS
VL: not shown
Consider B15, for which the “fold binding to target pHLA” value in test [1] was at least 3 fold.

B16: scFv G5R4-P1D06 (scFv, V domains shown)
VH: QVQLVQSGAEVKKPGASVKVSCKASGYTFTSYDINWVRQAPGQGLEWMGWINPNSGDTKYSQKFQGRVTMTRDTSTSTVYMELSSLRSEDTAVYYCARDGTRYYGMDVWGQGTTVTVSS
VL: not shown
In the case of B16, the “fold binding to target pHLA” value in test [1] is at least 3 fold.

B17: scFv R3G10-P5C08 (scFv, V domains shown)
VH: QVQLVQSGAEVKKPGASVKVSCKASGYNFTGYYMHWVRQAPGQGLEWMGIIAPSDGSTNYAQKFQGRVTMTRDTSTSTVYMELSSLRSEDTAVYYCARETGDDAFDIWGQGTMVTVSS
VL: not shown
On to B17, for which, in test [2], the “fold binding to target pHLA” value was at least 3 fold.

B18: scFv G5R4-P3G05 (scFv, V domains shown)
VH: QVQLVQSGAEVKKPGASVKVSCKASGYTFTNYYMHWVRQAPGQGLEWMGIINPSGGSTSYAQKFQGRVTMTRDTSTSTVYMELSSLRSEDTAVYYCARSWFGGFNYHYYGMDVWGQGTTVTVSS
VL: DIQMTQSPSSLSASVGDRVTITCQASEDISNHLNWYQQKPGKAPKLLIYDALSLQSGVPSRFSGSGSGTDFTLTISSLQPEDFATYYCQQANSFPFTFGPGTKVDIK
In the case of B18, the “fold binding to target pHLA” value in test [1] was at least 3 fold.

B19: scFv G5R4-P1H11 (scFv, V domains shown)
VH: EVQLLESGGGLVKPGGSLRLSCAASGFTFSDYYMSWVRQAPGKGLEWVSYISSSSSYTNYADSVKGRFTISRDDSKNTLYLQMNSLKTEDTAVYYCARDVVANFDYWGQGTLVTVSS
VL: EIVMTQSPATLSVSPGERATLSCRASQSVSSNLAWYQQKPGQAPRLLIYAASARASGIPARFSGSGSGTEFTLTISSLQSEDFAVYYCQQYGSWPRTFGQGTKVEIK
For B19, the “fold binding to target pHLA” value in test [1] was at least 3 fold.

B20: scFv G5-P1-E05 (scFv, V domains shown)
VH: QVQLVQSGAEVKKPGASVKVSCKASGYTFTSYNMHWVRQAPGQGLEWMGWINPNSGGTNYAQKFQGRVTMTRDTSTSTVYMELSSLRSEDTAVYYCARDVMDVWGQGTTVTVSS
VL: DIQMTQSPSSLSASVGDRVTITCRASQGISNYLNWYQQKPGKAPKLLIYYASSLQSGVPSRFSGSGSGTDFTLTISSLQPEDFATYYCQQTYMMPYTFGQGTKVEIK
With B20, in test [1], the “fold binding to target pHLA” value is at least 3 fold.

B21: scFv R3G10-P4C05 (scFv, V domains shown)
VH: B8 VH with L34M, M50I, S59T, D99A, G100E, D101N, A102G, F103M, I105V, M111T
VL: B20 VL with G28R, N31S, Y50S, S53T, T91S, M93S, M94T, Y96F, Q100P, E105D
Consider B21, for which the “fold binding to target pHLA” value in test [2] was at least 3 fold.

B22: scFv R3G10-P2C04 (scFv, V domains shown)
VH: QVQLVQSGAEVKKPGASVKVSCKASGGTFSNSIINWVRQAPGQGLEWMGWMNPNSGNTNYAQKFQGRVTMTRDTSTSTVYMELSSLRSEDTAVYYCAREQWPSYWYFDLWGRGTLVTVSS
VL: not shown
As for B22, in test [2], the “fold binding to target pHLA” value is at least 3 fold.

B23: scFv G5-P3G01 (scFv, V domains shown)
VH: QVQLVQSGAEVKKPGASVKVSCKASGGTFSGYLVSWVRQAPGQGLEWMGWINPNSGGTNTAQKFQGRVTMTRDTSTSTVYMELSSLRSEDTAVYYCAREGYGMDVWGQGTTVTVSS
VL: not shown
B23: in test [1], the “fold binding to target pHLA” value was at least 3 fold.
